Assay results as given in patent EP4585616A1, “ANTIBODY CAPABLE OF SPECIFICALLY BINDING TO ROR1, […] THEREOF, AND PREPARATION METHOD THEREFOR AND USE THEREOF” (Hefei Institutes of Physical Science, Chinese Academy of …, priority 2022, dated 2024).
Like-named read-outs stand apart in the source and are kept apart here.

How the values were obtained:
[1] = target: T1, ROR1 extracellular segment sequence (including transmembrane) on CHO cells (human, UniProt Q01973 30-472); assay: FACS, CHO-ROR1 (extracellular segment) cells
T1 construct: Cloned into pCDNA3.1 and transfected into CHO cells; also called CHO-ROR1 (extracellular segment); CHO-ROR1

[2] = target: T2, ROR1 extracellular segment with Frizzled domain removed on CHO cells (human, UniProt Q01973 30-472, limits assumed); assay: FACS, CHO-ROR1 (with Frizzled domain removed) cells
T2 construct: Transfected into CHO cells; also called CHO-ROR1 (with Frizzled domain removed)

[3] = target: T3, ROR1 extracellular segment with Kringle domain removed on CHO cells (human, UniProt Q01973 30-472, limits assumed); assay: FACS, CHO-ROR1 (with Kringle domain removed) cells
T3 construct: Transfected into CHO cells; also called CHO-ROR1 (with Kringle domain removed)

[4] = target: T4, human ROR1 on the surface of tumor cells (human, UniProt Q01973 30-937); assay: FACS, MDA-MB-231 cells
T4 construct: whole, on cells; also called ROR1 on the cell surface; tumor cell ROR1

[5] = target: T4, human ROR1 on the surface of tumor cells; assay: FACS, NCI-H226 cells
[6] = target: T5, Extracellular domain of human ROR1 protein (ROR1-ECD) (human, UniProt Q01973 30-403); assay: ELISA, plate-coated ROR1-ECD
T5 construct: Expressed in HEK293T cells; also called human ROR1-ECD; purified human ROR1 protein extracellular segment

[7] = target: T6, ROR1 extracellular segment with Ig-like domain removed on CHO cells (human, UniProt Q01973 30-472, limits assumed); assay: FACS, CHO-ROR1 (with Ig-like domain removed) cells
T6 construct: Transfected into CHO cells; also called CHO-ROR1 (with Ig-like domain removed)

[8] = target: T1, ROR1 extracellular segment sequence …; assay: FACS, ROR1 transferred onto CHO cell surface (summing up of Example 9)
[9] = target: T1, ROR1 extracellular segment sequence …; assay: FACS, CHO-ROR1 (extracellular segment) cells; remark: listed apart in the source
[10] = target: T4, human ROR1 on the surface of tumor cells; assay: FACS, NCI-H226 cells; remark: listed apart in the source
[11] = target: T4, human ROR1 on the surface of tumor cells; assay: FACS, MDA-MB-231 cells; remark: listed apart in the source
[12] = target: T5, Extracellular domain of human ROR1 …; assay: ELISA, plate-coated ROR1-ECD; remark: listed apart in the source
[13] = tested on: HT-29 tumors; assay: In vivo antitumor activity, subcutaneous tumor model; parameters: species or system immunodeficient mice (NCG or Balb/c-nude); conditions: 5 mg/kg and 2.5 mg/kg once a week, tail vein, 3 weeks, result in words
Description: (§1) 200 µL of cell matrix gel suspension containing 5×10^6 MDA-MB-231 and HT-29 were inoculated subcutaneously on the back of immunodeficient mice (NCG or Balb/c-nude). When the tumor volume grew to 100 to 200 mm^3, the mice were randomly divided into groups (n=10) according to the tumor volume and nude mouse weight. The mice were dosed at doses of 5 mg/kg and 2.5 mg/kg once a week through the tail vein for a total of 3 weeks, as well as a group with PBS set as a negative control. The tumor volume and nude mouse weight were measured and recorded 2 to 3 times a week to plot the tumor growth curve. The formula for calculating tumor volume (V) is: V=1/2×a×b^2, where a and b represent the length and width of the tumor, respectively.

[14] = tested on: MDA-MB-231 tumors; assay: as above; parameters: species or system immunodeficient mice (NCG or Balb/c-nude); conditions: 5 mg/kg once a week, tail vein, 3 weeks, result in words
Description: as §1
as §1, with “5 × 10^6 MDA-MB-231, 1 × 10^7 HCC1187, 1 × 10^7 PA-1, or 5 × 10^6 NCI-N87 was” for “5×10^6 MDA-MB-231 and HT-29 were”, “300 mm3,” for “200 mm^3,”, “(n=8 to 10)” for “(n=10)”, “The formula for calculating tumor volume (V) is: V=1/2×a×b^2, where a and b represent the length and width of the tumor, respectively.” left out

T2 sequence (Q01973 other isoform, or with tags, fused parts or gaps limits assumed): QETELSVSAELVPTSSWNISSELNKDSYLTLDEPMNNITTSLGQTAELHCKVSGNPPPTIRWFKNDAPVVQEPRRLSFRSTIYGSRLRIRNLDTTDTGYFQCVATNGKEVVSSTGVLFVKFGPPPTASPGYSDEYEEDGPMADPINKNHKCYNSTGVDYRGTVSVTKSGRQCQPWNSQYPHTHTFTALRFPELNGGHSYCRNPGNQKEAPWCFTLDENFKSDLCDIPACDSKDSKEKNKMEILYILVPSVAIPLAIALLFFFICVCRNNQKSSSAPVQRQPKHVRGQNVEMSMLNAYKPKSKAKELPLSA
T6 sequence (Q01973 other isoform, or with tags, fused parts or gaps limits assumed): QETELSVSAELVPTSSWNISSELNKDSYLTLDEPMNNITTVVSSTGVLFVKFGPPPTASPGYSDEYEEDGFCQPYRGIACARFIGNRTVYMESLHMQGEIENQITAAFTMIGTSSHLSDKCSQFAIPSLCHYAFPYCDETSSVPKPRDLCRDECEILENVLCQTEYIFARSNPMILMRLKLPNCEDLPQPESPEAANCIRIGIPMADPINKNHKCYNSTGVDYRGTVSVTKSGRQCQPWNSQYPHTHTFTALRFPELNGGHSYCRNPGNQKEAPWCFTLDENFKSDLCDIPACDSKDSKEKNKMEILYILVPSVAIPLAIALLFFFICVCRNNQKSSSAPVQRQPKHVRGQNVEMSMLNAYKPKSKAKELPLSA
T1 sequence (Q01973 30-472 limits assumed): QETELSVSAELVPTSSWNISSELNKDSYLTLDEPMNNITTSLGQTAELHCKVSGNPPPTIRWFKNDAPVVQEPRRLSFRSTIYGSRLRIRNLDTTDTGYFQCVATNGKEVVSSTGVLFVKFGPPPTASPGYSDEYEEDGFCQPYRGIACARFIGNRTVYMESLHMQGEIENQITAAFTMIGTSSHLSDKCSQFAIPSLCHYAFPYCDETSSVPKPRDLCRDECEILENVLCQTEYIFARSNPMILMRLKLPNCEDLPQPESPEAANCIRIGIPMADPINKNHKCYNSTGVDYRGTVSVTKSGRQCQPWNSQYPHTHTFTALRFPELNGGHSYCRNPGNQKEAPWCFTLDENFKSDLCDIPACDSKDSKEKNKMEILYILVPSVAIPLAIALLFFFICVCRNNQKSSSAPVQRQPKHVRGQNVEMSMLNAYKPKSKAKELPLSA
T5 sequence (Q01973 other isoform, or with tags, fused parts or gaps): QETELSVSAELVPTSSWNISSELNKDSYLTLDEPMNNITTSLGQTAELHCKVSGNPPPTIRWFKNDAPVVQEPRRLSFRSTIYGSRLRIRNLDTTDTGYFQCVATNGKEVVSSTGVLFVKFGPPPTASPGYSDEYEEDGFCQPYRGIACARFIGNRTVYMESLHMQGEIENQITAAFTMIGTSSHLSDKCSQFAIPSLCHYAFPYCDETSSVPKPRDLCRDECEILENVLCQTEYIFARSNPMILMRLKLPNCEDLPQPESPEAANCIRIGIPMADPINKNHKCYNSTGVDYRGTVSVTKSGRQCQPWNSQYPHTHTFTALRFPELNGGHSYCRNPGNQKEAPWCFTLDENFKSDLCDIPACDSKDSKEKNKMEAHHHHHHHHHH
T3 sequence (Q01973 other isoform, or with tags, fused parts or gaps limits assumed): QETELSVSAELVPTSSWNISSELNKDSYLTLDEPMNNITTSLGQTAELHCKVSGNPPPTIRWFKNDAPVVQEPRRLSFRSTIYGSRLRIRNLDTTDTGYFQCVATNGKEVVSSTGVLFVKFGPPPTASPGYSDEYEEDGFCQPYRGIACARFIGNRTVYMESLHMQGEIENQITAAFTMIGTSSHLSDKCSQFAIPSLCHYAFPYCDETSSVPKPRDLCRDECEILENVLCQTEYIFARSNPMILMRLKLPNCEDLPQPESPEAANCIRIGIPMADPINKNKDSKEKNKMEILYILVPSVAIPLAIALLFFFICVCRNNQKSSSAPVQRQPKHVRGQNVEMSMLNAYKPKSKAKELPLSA
T4 sequence (Q01973 30-937): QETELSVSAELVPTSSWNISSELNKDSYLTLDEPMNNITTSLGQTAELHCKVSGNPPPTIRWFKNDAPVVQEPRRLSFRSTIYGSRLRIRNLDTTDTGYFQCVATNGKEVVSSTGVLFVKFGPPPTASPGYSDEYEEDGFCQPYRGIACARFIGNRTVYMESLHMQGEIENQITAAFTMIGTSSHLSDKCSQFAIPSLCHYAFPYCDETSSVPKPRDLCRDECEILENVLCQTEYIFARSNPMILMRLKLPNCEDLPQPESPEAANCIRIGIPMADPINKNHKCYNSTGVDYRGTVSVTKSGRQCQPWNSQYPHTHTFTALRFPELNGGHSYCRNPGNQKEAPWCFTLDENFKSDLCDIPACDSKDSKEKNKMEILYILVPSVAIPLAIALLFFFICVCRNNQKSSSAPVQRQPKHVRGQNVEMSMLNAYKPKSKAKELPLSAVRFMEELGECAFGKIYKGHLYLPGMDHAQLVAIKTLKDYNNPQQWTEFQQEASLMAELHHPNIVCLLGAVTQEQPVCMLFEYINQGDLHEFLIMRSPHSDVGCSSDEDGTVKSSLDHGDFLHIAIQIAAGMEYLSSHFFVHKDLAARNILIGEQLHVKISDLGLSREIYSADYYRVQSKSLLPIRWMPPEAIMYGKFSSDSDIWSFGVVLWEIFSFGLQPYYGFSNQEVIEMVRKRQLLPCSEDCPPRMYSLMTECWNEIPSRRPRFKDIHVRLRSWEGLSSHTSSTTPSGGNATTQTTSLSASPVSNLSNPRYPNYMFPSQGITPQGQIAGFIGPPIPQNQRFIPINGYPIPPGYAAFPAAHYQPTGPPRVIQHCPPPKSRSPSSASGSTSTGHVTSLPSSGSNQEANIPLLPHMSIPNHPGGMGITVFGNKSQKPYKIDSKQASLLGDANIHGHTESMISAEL

B1: UC-961 (antibody, V domains shown)
VH: QVQLQESGPGLVKPSQTLSLTCTVSGYAFTAYNIHWVRQAPGQGLEWMGSFDPYDGGSSYNQKFKDRLTISKDTSKNQVVLTMTNMDPVDTATYYCARGWYYFDYWGHGTLVTVSS
VL: DIVMTQTPLSLPVTPGEPASISCRASKSISKYLAWYQQKPGQAPRLLIYSGSTLQSGIPPRFSGSGYGTDFTLTINNIESEDAAYYFCQQHDESPYTFGEGTKVEIK
notes: Control antibody of US20150232569A1, made with human IgG1 heavy chain constant region and Kappa chain constant region
EC50 [1]: 0.74 nM | EC50 [2]: 1.11 nM | EC50 [3]: 0.79 nM | EC50 [4]: 0.21 nM | EC50 [5]: 0.13 nM | EC50 [6]: 0.013 nM

B2: mAb001c (antibody, V domains shown)
VH: EVRLQQSGPVLVKPGASVKMSCKASGYTFTDYNLHWVKQSHRQSLEWIGYINPNHDGTSYNQKFQGKATLTVDRSSSTAYMEFRSLTSEDSAVYYCARRVRTGTGLDDWGQGTTLTVSS
VL: DVLMTQSPLSLPVSLGDQASISCRSSHNIVHTNGNTYLEWYLQKPGQSPKLLIYKVSNRFSGVPDRFSGSGSGTYFTLTISRVEAEDLGVYYCFQGSRFPYTFGGGTKLEIK
notes: Human-mouse chimeric; also called human-mouse chimeric antibody mAb001c
EC50 [1]: 0.32 nM | EC50 [2]: 0.85 nM | EC50 [7]: 0.36 nM | EC50 [3]: 0.38 nM | EC50 [8]: < 2 nM | EC50 [4]: 0.15 nM | EC50 [5]: 0.11 nM | EC50 [6]: 0.012 nM

B3: mAb007c (antibody, V domains shown)
VH: EVQLQQSGPELVKPGASVKMSCKASGYTFTDYNMHWVKQSHGKSLEWIGYINPNNGGTSYNQKFKGKATLTVNKSSSTAYMELRSLTSDDSAVYYCARRGYGSGYAMDYWGQGTSVTVSS
VL: DVLMTQTPLSLPVSLGDQASISCRSSQSIVHTNGNTYLEWYLQNPGQSPKLLIYKVFNRFSGVPDRFSGSGSGTDFTLKISRVEAEDLGVYYCFQGSLFPYTFGGGTKLEIK
notes: Human-mouse chimeric
EC50 [9]: 0.54 nM | EC50 [2]: 1.25 nM | EC50 [7]: 0.36 nM | EC50 [3]: 1.03 nM | EC50 [8]: < 2 nM | EC50 [10]: 0.28 nM | EC50 [11]: 0.25 nM | EC50 [12]: 0.012 nM

B4: mAb001c-vcMMAE: antibody conjugate of chimeric antibody mAb001c coupled with vcMMAE, average DAR about 3.81 (conjugate)
VH: EVRLQQSGPVLVKPGASVKMSCKASGYTFTDYNLHWVKQSHRQSLEWIGYINPNHDGTSYNQKFQGKATLTVDRSSSTAYMEFRSLTSEDSAVYYCARRVRTGTGLDDWGQGTTLTVSS
VL: DVLMTQSPLSLPVSLGDQASISCRSSHNIVHTNGNTYLEWYLQKPGQSPKLLIYKVSNRFSGVPDRFSGSGSGTYFTLTISRVEAEDLGVYYCFQGSRFPYTFGGGTKLEIK
inhibition of the growth of HT-29 tumors [13]: significantly and dose-dependently inhibited | inhibition of the growth of MDA-MB-231 tumors [14]: completely inhibit

B5: mAb008c (antibody, V domains shown)
VH: EVQLQQSGPELVKPGASVKMSCKASEYTFTDYNMHWVKQSHGKSLEWIGYINPNNGGTTYNQKFKGKATLTVNKSSSTAYMELRSLTSDDSAVYYCARRGYGSGYAMDYWGQGASVTVSS
VL: DVLLTQTPLSLPVSLGDRASISCTSSQSIVHTNGNTYLEWYLQNPGQSPKLLIYKVSNRFSGVPDRFSGSGSGTDFTLKISRVEAEDLGVYYCFQGSLFPYTFGGGTKLEIK
notes: Human-mouse chimeric
EC50 [9]: 0.7 nM | EC50 [2]: 1.67 nM | EC50 [7]: 0.37 nM | EC50 [3]: 1.5 nM | EC50 [8]: < 2 nM | EC50 [10]: 0.36 nM | EC50 [11]: 0.78 nM | EC50 [12]: 0.02 nM

B6: mAb005c (antibody, V domains shown)
VH: EVQLVESGGGLVKPGGSLKLSCAASGFTFNSYAMSWVRQTPEKRLEWVATISDGGSYTYYPDNEKGRFTISRDNAKNNLYLQMSHLKSEDTAIYYCVRGGYYYNLYAMDYWGQGTSVTVSS
VL: DIVLTQSPASLAVSLGQRAIISCKASQSVSFPGTSLMHWYQQKPGQQPKLLIYRASNLEAGVPTRFSGSGSRTDFTLNIHPVEEDDTATYYCQQSREYPWTFGGGTQLEIK
notes: Human-mouse chimeric
EC50 [1]: 0.57 nM | EC50 [2]: 1.02 nM | EC50 [3]: 0.91 nM | EC50 [8]: < 2 nM | EC50 [4]: 0.24 nM | EC50 [5]: 0.18 nM | EC50 [6]: 0.009 nM

B7: mAb004c (antibody, V domains shown)
VH: EVQLVESGGGLVQPKGSLKLSCAASGFTFNTYAMHWVRQAPGKGLEWVARIRSKSSNFATYYADSVRDRFTISRDDSQSMLYLQMNNLKTEDTAMYYCVRGYGPSYFSLDYWGQGTSVTVSS
VL: DVVMTQTPLSLPVSLGDQASISCRSSQSLVHSNGNTYLHWYLQKPGQSPKLLIYKVSNRFSGVPDRFSGSGSGTDFTLKINRVEAEDLGVYFCSQSTHAIYTFGGGTKLEIK
notes: Human-mouse chimeric
EC50 [1]: 0.32 nM | EC50 [2]: 1.37 nM | EC50 [7]: 0.35 nM | EC50 [3]: 0.84 nM | EC50 [8]: < 2 nM | EC50 [4]: 0.4 nM | EC50 [5]: 0.46 nM | EC50 [6]: 0.012 nM
